OD450nm and Ratio OD(Variant)/OD(WT) data for 19 molecules are collected here from patent US20230365662A1.

“And” between values parts separate entries of the source, which are not always exact repeats. Equal entries are not always repeated.

The labels stand for the following.
B1: parental mouse (KB001) Fab FASEBA, VL variant S57A (Fab, V domains shown)
VH: EVQLKQSGPGLVAPSQSLSITCTVSGFSLSIYSVHWVRQPPGKGLEWLGMIWGGGSSDYNSALKSRLSISKDNSKSQVFLKMNSLQTDDTAMYYCARNGNFYAMDYWGQGTSVTVSS
VL: QIVLTQSPAIMSASLGERVTMTCTASSSVSSSFLHWYQQKPGSSPQLWIYSTSNLAAGVPARFSGSGSGTSYSLTISSMEAEDAATYYCHQYHHSPYIYTFGGGTKLEIK
B2: parental mouse (KB001) Fab FASEBA, VL variant Y92N (Fab, V domains shown)
VH: EVQLKQSGPGLVAPSQSLSITCTVSGFSLSIYSVHWVRQPPGKGLEWLGMIWGGGSSDYNSALKSRLSISKDNSKSQVFLKMNSLQTDDTAMYYCARNGNFYAMDYWGQGTSVTVSS
VL: QIVLTQSPAIMSASLGERVTMTCTASSSVSSSFLHWYQQKPGSSPQLWIYSTSNLASGVPARFSGSGSGTSYSLTISSMEAEDAATYYCHQNHHSPYIYTFGGGTKLEIK
B3: parental mouse (KB001) Fab FASEBA, VL variant S57F (Fab, V domains shown)
VH: EVQLKQSGPGLVAPSQSLSITCTVSGFSLSIYSVHWVRQPPGKGLEWLGMIWGGGSSDYNSALKSRLSISKDNSKSQVFLKMNSLQTDDTAMYYCARNGNFYAMDYWGQGTSVTVSS
VL: QIVLTQSPAIMSASLGERVTMTCTASSSVSSSFLHWYQQKPGSSPQLWIYSTSNLAFGVPARFSGSGSGTSYSLTISSMEAEDAATYYCHQYHHSPYIYTFGGGTKLEIK
B4: parental mouse (KB001) Fab FASEBA, VL variant Q91E (Fab, V domains shown)
VH: EVQLKQSGPGLVAPSQSLSITCTVSGFSLSIYSVHWVRQPPGKGLEWLGMIWGGGSSDYNSALKSRLSISKDNSKSQVFLKMNSLQTDDTAMYYCARNGNFYAMDYWGQGTSVTVSS
VL: QIVLTQSPAIMSASLGERVTMTCTASSSVSSSFLHWYQQKPGSSPQLWIYSTSNLASGVPARFSGSGSGTSYSLTISSMEAEDAATYYCHEYHHSPYIYTFGGGTKLEIK
B5: parental mouse (KB001) Fab FASEBA, VL variant H93N (Fab, V domains shown)
VH: EVQLKQSGPGLVAPSQSLSITCTVSGFSLSIYSVHWVRQPPGKGLEWLGMIWGGGSSDYNSALKSRLSISKDNSKSQVFLKMNSLQTDDTAMYYCARNGNFYAMDYWGQGTSVTVSS
VL: QIVLTQSPAIMSASLGERVTMTCTASSSVSSSFLHWYQQKPGSSPQLWIYSTSNLASGVPARFSGSGSGTSYSLTISSMEAEDAATYYCHQYNHSPYIYTFGGGTKLEIK
B6: parental mouse (KB001) Fab FASEBA, VL variant S57W (Fab, V domains shown)
VH: EVQLKQSGPGLVAPSQSLSITCTVSGFSLSIYSVHWVRQPPGKGLEWLGMIWGGGSSDYNSALKSRLSISKDNSKSQVFLKMNSLQTDDTAMYYCARNGNFYAMDYWGQGTSVTVSS
VL: QIVLTQSPAIMSASLGERVTMTCTASSSVSSSFLHWYQQKPGSSPQLWIYSTSNLAWGVPARFSGSGSGTSYSLTISSMEAEDAATYYCHQYHHSPYIYTFGGGTKLEIK
B7: parental mouse (KB001) Fab FASEBA, VL variant S57N (Fab, V domains shown)
VH: EVQLKQSGPGLVAPSQSLSITCTVSGFSLSIYSVHWVRQPPGKGLEWLGMIWGGGSSDYNSALKSRLSISKDNSKSQVFLKMNSLQTDDTAMYYCARNGNFYAMDYWGQGTSVTVSS
VL: QIVLTQSPAIMSASLGERVTMTCTASSSVSSSFLHWYQQKPGSSPQLWIYSTSNLANGVPARFSGSGSGTSYSLTISSMEAEDAATYYCHQYHHSPYIYTFGGGTKLEIK
B8: parental mouse (KB001) Fab FASEBA, VL variant H90W (Fab, V domains shown)
VH: EVQLKQSGPGLVAPSQSLSITCTVSGFSLSIYSVHWVRQPPGKGLEWLGMIWGGGSSDYNSALKSRLSISKDNSKSQVFLKMNSLQTDDTAMYYCARNGNFYAMDYWGQGTSVTVSS
VL: QIVLTQSPAIMSASLGERVTMTCTASSSVSSSFLHWYQQKPGSSPQLWIYSTSNLASGVPARFSGSGSGTSYSLTISSMEAEDAATYYCWQYHHSPYIYTFGGGTKLEIK
B9: parental mouse (KB001) Fab FASEBA, VL variant S57R (Fab, V domains shown)
VH: EVQLKQSGPGLVAPSQSLSITCTVSGFSLSIYSVHWVRQPPGKGLEWLGMIWGGGSSDYNSALKSRLSISKDNSKSQVFLKMNSLQTDDTAMYYCARNGNFYAMDYWGQGTSVTVSS
VL: QIVLTQSPAIMSASLGERVTMTCTASSSVSSSFLHWYQQKPGSSPQLWIYSTSNLARGVPARFSGSGSGTSYSLTISSMEAEDAATYYCHQYHHSPYIYTFGGGTKLEIK
B10: parental mouse (KB001) Fab FASEBA, VL variant S57E (Fab, V domains shown)
VH: EVQLKQSGPGLVAPSQSLSITCTVSGFSLSIYSVHWVRQPPGKGLEWLGMIWGGGSSDYNSALKSRLSISKDNSKSQVFLKMNSLQTDDTAMYYCARNGNFYAMDYWGQGTSVTVSS
VL: QIVLTQSPAIMSASLGERVTMTCTASSSVSSSFLHWYQQKPGSSPQLWIYSTSNLAEGVPARFSGSGSGTSYSLTISSMEAEDAATYYCHQYHHSPYIYTFGGGTKLEIK
B11: parental mouse (KB001) Fab FASEBA, VL variant S57Q (Fab, V domains shown)
VH: EVQLKQSGPGLVAPSQSLSITCTVSGFSLSIYSVHWVRQPPGKGLEWLGMIWGGGSSDYNSALKSRLSISKDNSKSQVFLKMNSLQTDDTAMYYCARNGNFYAMDYWGQGTSVTVSS
VL: QIVLTQSPAIMSASLGERVTMTCTASSSVSSSFLHWYQQKPGSSPQLWIYSTSNLAQGVPARFSGSGSGTSYSLTISSMEAEDAATYYCHQYHHSPYIYTFGGGTKLEIK
B12: parental mouse (KB001) Fab FASEBA, VL variant H94Y (Fab, V domains shown)
VH: EVQLKQSGPGLVAPSQSLSITCTVSGFSLSIYSVHWVRQPPGKGLEWLGMIWGGGSSDYNSALKSRLSISKDNSKSQVFLKMNSLQTDDTAMYYCARNGNFYAMDYWGQGTSVTVSS
VL: QIVLTQSPAIMSASLGERVTMTCTASSSVSSSFLHWYQQKPGSSPQLWIYSTSNLASGVPARFSGSGSGTSYSLTISSMEAEDAATYYCHQYHYSPYIYTFGGGTKLEIK
B13: parental mouse (KB001) Fab FASEBA, VL variant S57L (Fab, V domains shown)
VH: EVQLKQSGPGLVAPSQSLSITCTVSGFSLSIYSVHWVRQPPGKGLEWLGMIWGGGSSDYNSALKSRLSISKDNSKSQVFLKMNSLQTDDTAMYYCARNGNFYAMDYWGQGTSVTVSS
VL: QIVLTQSPAIMSASLGERVTMTCTASSSVSSSFLHWYQQKPGSSPQLWIYSTSNLALGVPARFSGSGSGTSYSLTISSMEAEDAATYYCHQYHHSPYIYTFGGGTKLEIK
B14: parental mouse (KB001) Fab FASEBA, VL variant S57M (Fab, V domains shown)
VH: EVQLKQSGPGLVAPSQSLSITCTVSGFSLSIYSVHWVRQPPGKGLEWLGMIWGGGSSDYNSALKSRLSISKDNSKSQVFLKMNSLQTDDTAMYYCARNGNFYAMDYWGQGTSVTVSS
VL: QIVLTQSPAIMSASLGERVTMTCTASSSVSSSFLHWYQQKPGSSPQLWIYSTSNLAMGVPARFSGSGSGTSYSLTISSMEAEDAATYYCHQYHHSPYIYTFGGGTKLEIK
B15: parental mouse (KB001) Fab FASEBA, VL variant Q91M (Fab, V domains shown)
VH: EVQLKQSGPGLVAPSQSLSITCTVSGFSLSIYSVHWVRQPPGKGLEWLGMIWGGGSSDYNSALKSRLSISKDNSKSQVFLKMNSLQTDDTAMYYCARNGNFYAMDYWGQGTSVTVSS
VL: QIVLTQSPAIMSASLGERVTMTCTASSSVSSSFLHWYQQKPGSSPQLWIYSTSNLASGVPARFSGSGSGTSYSLTISSMEAEDAATYYCHMYHHSPYIYTFGGGTKLEIK
B16: parental mouse (KB001) Fab FASEBA, VL variant S57I (Fab, V domains shown)
VH: EVQLKQSGPGLVAPSQSLSITCTVSGFSLSIYSVHWVRQPPGKGLEWLGMIWGGGSSDYNSALKSRLSISKDNSKSQVFLKMNSLQTDDTAMYYCARNGNFYAMDYWGQGTSVTVSS
VL: QIVLTQSPAIMSASLGERVTMTCTASSSVSSSFLHWYQQKPGSSPQLWIYSTSNLAIGVPARFSGSGSGTSYSLTISSMEAEDAATYYCHQYHHSPYIYTFGGGTKLEIK
B17: parental mouse (KB001) Fab FASEBA, VL variant H90L (Fab, V domains shown)
VH: EVQLKQSGPGLVAPSQSLSITCTVSGFSLSIYSVHWVRQPPGKGLEWLGMIWGGGSSDYNSALKSRLSISKDNSKSQVFLKMNSLQTDDTAMYYCARNGNFYAMDYWGQGTSVTVSS
VL: QIVLTQSPAIMSASLGERVTMTCTASSSVSSSFLHWYQQKPGSSPQLWIYSTSNLASGVPARFSGSGSGTSYSLTISSMEAEDAATYYCLQYHHSPYIYTFGGGTKLEIK
B18: parental mouse (KB001) Fab FASEBA, VL variant S57K (Fab, V domains shown)
VH: EVQLKQSGPGLVAPSQSLSITCTVSGFSLSIYSVHWVRQPPGKGLEWLGMIWGGGSSDYNSALKSRLSISKDNSKSQVFLKMNSLQTDDTAMYYCARNGNFYAMDYWGQGTSVTVSS
VL: QIVLTQSPAIMSASLGERVTMTCTASSSVSSSFLHWYQQKPGSSPQLWIYSTSNLAKGVPARFSGSGSGTSYSLTISSMEAEDAATYYCHQYHHSPYIYTFGGGTKLEIK
B19: parental mouse (KB001) Fab FASEBA, VL variant Y92D (Fab, V domains shown)
VH: EVQLKQSGPGLVAPSQSLSITCTVSGFSLSIYSVHWVRQPPGKGLEWLGMIWGGGSSDYNSALKSRLSISKDNSKSQVFLKMNSLQTDDTAMYYCARNGNFYAMDYWGQGTSVTVSS
VL: QIVLTQSPAIMSASLGERVTMTCTASSSVSSSFLHWYQQKPGSSPQLWIYSTSNLASGVPARFSGSGSGTSYSLTISSMEAEDAATYYCHQDHHSPYIYTFGGGTKLEIK

This assay addresses HRgpA-6H (Porphyromonas gingivalis) (UniProt P28784). Briefly: ELISA, Fab FASEBA supernatant on coated HRgpA-6H. A general note: In an ELISA, binding on a coated surface is turned into a signal by an enzyme label.
UniProt P28784, sequence (P28784 228-991 limits assumed): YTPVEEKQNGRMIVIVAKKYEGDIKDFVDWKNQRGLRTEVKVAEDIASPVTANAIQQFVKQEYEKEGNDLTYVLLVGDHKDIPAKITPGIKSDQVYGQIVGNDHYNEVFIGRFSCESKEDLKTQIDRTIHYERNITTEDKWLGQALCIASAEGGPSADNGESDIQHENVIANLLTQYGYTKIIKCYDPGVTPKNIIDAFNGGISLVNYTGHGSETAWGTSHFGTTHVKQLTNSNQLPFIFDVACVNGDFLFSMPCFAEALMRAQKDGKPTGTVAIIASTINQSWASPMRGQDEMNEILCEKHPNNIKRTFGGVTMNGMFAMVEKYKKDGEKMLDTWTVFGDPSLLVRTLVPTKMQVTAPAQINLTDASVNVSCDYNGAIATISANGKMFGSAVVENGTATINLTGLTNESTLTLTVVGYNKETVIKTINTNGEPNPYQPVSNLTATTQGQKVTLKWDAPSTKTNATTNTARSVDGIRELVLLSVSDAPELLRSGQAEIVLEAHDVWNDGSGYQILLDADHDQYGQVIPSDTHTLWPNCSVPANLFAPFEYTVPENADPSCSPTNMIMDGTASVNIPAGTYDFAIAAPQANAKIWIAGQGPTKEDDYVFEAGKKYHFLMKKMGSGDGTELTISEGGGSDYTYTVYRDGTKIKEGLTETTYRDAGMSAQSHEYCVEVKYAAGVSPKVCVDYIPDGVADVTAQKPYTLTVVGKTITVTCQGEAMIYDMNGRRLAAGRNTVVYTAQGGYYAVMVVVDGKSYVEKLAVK
On to B1, for which the OD450nm worked out at 0.806 OD450nm and the Ratio OD(Variant)/OD(WT) is 0.988 ratio to WT.

For the molecule B2, the OD450nm was 0.773 OD450nm and the Ratio OD(Variant)/OD(WT) was 0.821 ratio to WT.

As for B3, the OD450nm is 0.785 OD450nm and 0.787 OD450nm and 0.797 OD450nm; the Ratio OD(Variant)/OD(WT) is 0.963 ratio to WT and 0.965 ratio to WT and 0.977 ratio to WT.

Take B4: the OD450nm is 0.709 OD450nm and 0.694 OD450nm and 0.701 OD450nm; the Ratio OD(Variant)/OD(WT) is 0.823 ratio to WT and 0.806 ratio to WT and 0.814 ratio to WT.

For B5, the OD450nm was determined as 0.857 OD450nm and the Ratio OD(Variant)/OD(WT) is 0.91 ratio to WT.

For the molecule B6, the OD450nm came to 0.784 OD450nm and the Ratio OD(Variant)/OD(WT) is 0.961 ratio to WT.

Turning to B7, the OD450nm was 0.813 OD450nm and the Ratio OD(Variant)/OD(WT) was 0.997 ratio to WT.

With B8, the OD450nm was determined as 0.763 OD450nm and the Ratio OD(Variant)/OD(WT) is 0.886 ratio to WT.

Consider B9, for which the OD450nm worked out at 0.746 OD450nm and the Ratio OD(Variant)/OD(WT) was 0.915 ratio to WT.

Regarding B10, the OD450nm turned out to be 0.751 OD450nm and the Ratio OD(Variant)/OD(WT) was 0.921 ratio to WT.

In the case of B11, the OD450nm was determined as 0.658 OD450nm and the Ratio OD(Variant)/OD(WT) is 0.807 ratio to WT.

On to B12, for which the OD450nm was found to be 0.865 OD450nm and the Ratio OD(Variant)/OD(WT) is 0.942 ratio to WT.

As for B13, the OD450nm turned out to be 0.781 OD450nm and the Ratio OD(Variant)/OD(WT) is 0.958 ratio to WT.

Regarding B14, the OD450nm amounted to 0.745 OD450nm and the Ratio OD(Variant)/OD(WT) was 0.914 ratio to WT.

Consider B15, for which the OD450nm was 0.757 OD450nm and the Ratio OD(Variant)/OD(WT) is 0.879 ratio to WT.

In the case of B16, the OD450nm came to 0.791 OD450nm and the Ratio OD(Variant)/OD(WT) was 0.97 ratio to WT.

With B17, the OD450nm was 0.785 OD450nm and 0.694 OD450nm; the Ratio OD(Variant)/OD(WT) is 0.911 ratio to WT and 0.806 ratio to WT.

In the case of B18, the OD450nm turned out to be 0.712 OD450nm and the Ratio OD(Variant)/OD(WT) is 0.873 ratio to WT.

Regarding B19, the OD450nm came out at 0.758 OD450nm and the Ratio OD(Variant)/OD(WT) was 0.805 ratio to WT.
